Test results: US20230062308A1, “TREATMENT OF CK8 POSITIVE CANCERS IN RELATION WITH K-RAS GENE STATUS” (INTERNATIONAL - DRUG - DEVELOPMENT - BIOTECH, priority 2017, published 2023)

T1: CK8 (Homo sapiens, UniProt P05787)
T1 sequence (P05787 1-483): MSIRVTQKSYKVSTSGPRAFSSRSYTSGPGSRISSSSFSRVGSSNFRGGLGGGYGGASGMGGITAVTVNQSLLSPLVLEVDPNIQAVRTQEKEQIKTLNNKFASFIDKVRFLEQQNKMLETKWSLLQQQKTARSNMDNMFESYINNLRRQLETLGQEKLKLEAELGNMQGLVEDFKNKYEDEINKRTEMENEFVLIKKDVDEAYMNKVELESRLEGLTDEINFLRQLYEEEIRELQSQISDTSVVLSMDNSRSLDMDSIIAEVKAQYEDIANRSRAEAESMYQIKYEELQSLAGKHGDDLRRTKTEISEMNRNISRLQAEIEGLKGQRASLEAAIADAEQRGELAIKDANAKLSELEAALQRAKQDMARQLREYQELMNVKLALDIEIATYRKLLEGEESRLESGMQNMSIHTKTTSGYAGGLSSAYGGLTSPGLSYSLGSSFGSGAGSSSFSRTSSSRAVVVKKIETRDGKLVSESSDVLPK


Tests used:
[1] = system: Human HAN larynx cell line BICR18; experiment: In vivo tumour growth, HAN CDX model (larynx cell line BICR18); conditions: BICR18 s.c. in SCID mice; HzR022 (D-A10) 10 mg/kg i.p. BIW × 3; cisplatin 2.5 mg/kg i.p. QW × 3
Description: Human HAN larynx cell line BICR18 was subcutaneously injected in SCID mice, with a concentration of 1.10^6 cells per injection (200 μL). Mice were randomized when the tumours reached a mean volume of about 100 mm^3 for the 9 groups (total 45 mice). […] The endpoint was defined by animal ethics as a tumour diameter of >18 mm, significant weight loss or alteration of animal well-being. In order to assess the effectiveness of the compounds on tumourigenesis, tumour volume was measured two times a week. The size of the primary tumours were measured using calipers and the tumour volume (TV) was extrapolated to a sphere using the formula TV= 4/3π×r^3, by calculating the mean radius from the two measurements. The median and standard deviation were also calculated for each group. Median is preferred to mean in order to exclude the extreme values. MAb treatment was administered by intraperitoneal injection twice a week during three weeks at 10 or 1 mg/kg doses. The cisplatin (Myland) treatment was administered by intraperitoneal injection once per week during three weeks at 1, 2.5 or 5 mg/kg doses. The product was prepared in accordance with the sponsor's guidelines, i.e. diluted in PBS. Mice were sacrificed when the tumours reached a maximum volume of 1600 mm^3. […] The t-test (two-tailed test) was performed on the tumour volume values (mm^3) measured on the day of sacrifice.

CK8 = target: T1, CK8; experiment: Antibody internalisation assay by flow cytometry; type: cell-based; design: methods to investigate on CK8 cellular expression at the cell surface analysed by flow cytometry; endogenous in cells; conditions: 4° C. versus 37° C., 24 hours; 0.78 or 0.39 μg/mL; HCT116, U87MG, BICR56, BxPC3, DU145 cell lines (FIG. 4-6)
Description: This example describes methods to investigate on HzR022 (D-A10) internalisation following CK8 detection at the cell surface analysed by flow cytometry.
Flow cytometry experiments for MAb internalisation. Briefly, 2.10^5 cells per 96 wells are incubated at 4° C. versus 37° C. during 24 hours with a dilution of unconjugated murine anti CK8 MAb at 50 μg/mL then diluted at ½. The MAb anti CK8 tested were D-A10 (IgG2b), D-F5 (IgG2a) or D-D6 (IgG1), from iDD biotech MAb panel. The isotype matched MAbs used were B-Z1 (IgG1), B-Z2 (IgG2a) or B-E4 (IgG2b) (Diaclone, Besancon, France). Unbound antibodies were washed away with PBS (Life technologies, St Aubin, France) supplemented by 1% Bovine Serum Albumin (Sigma, St Quentin Fallavier, France). Subsequently, cells are centrifuged (5 min at 400 g) and bound antibody is detected with Fluorescein Isothiocyanate (FITC) conjugated goat (Fab′)2 polyclonal anti mouse Ig (MP Biomedical, Illkirch, France) at 4° C. for 30 min. Detection reagent is washed away and cells are centrifuged (5 min at 400 g) and suspended in 300 μL PBS. Bound detection antibody is quantified on a FACSCAN (BD Biosciences, Rungis, France), (FL1 channel, 3 000 events per acquisition). During the experiment, the respective isotype controls are included to exclude any unspecific binding events
Results of experiments are shown in FIG. 4 for D-A10 MAb (at 0.78 or 0.39 μg/mL), in FIG. 5 for D-D6 (at 0.78 or 0.39 μg/mL), in FIG. 6 for D-F5 (at 0.78 or 0.39 μg/mL). One example was shown for CRC from HCT116 cell line, GBM from U87MG cell line, HAN from BIRC56 cell line, PC from BxPC3 or PRC from DU145.

internalization potential (CK8)	Molecule	tumour growth control (tumour volume, FIG. 3) [1]
–	N.N.[Cl][Pt][Cl] [cisplatin, reference compound]	rapid cisplatin escape
highest internalization potential	D-A10: murine anti-CK8 monoclonal antibody (IgG2b); VL SEQ ID NO: 2, VH SEQ ID NO: 4 (antibody, V domains shown, VH mD-A10; VLmD-A10) VH: EVQLLETGGGLVQPGGSRGLSCEGSGFTFSGFWMSWVRQTPGKTLEWIGDINSDGSAIKYAPSIKDRFTIFRDNDKSTLYLQMSNVRSEDTATYFCIAHYSGGGFAYWGQGTSVTVSS VL: NIVMTQAAPSVPVTPGESVSISCRSSKSLLYSNGNTYLYWFLQRPGQSPQRLIYYMSNLASGVPDRFSGRGSGTDFTLRISRVEAEDVGVYYCMQSLEYPFTFGGGTKLEIK	–
lower internalization potential	D-F5: murine anti-CK8 monoclonal antibody (IgG2a); VL SEQ ID NO: 40, VH SEQ ID NO: 42 (antibody, V domains shown, VH-mR022 (D-F5); VL-mR022 (D-F5)) VH: QVQLKESGPGLVAPSQSLSITCTVSGFSLTSYGVHWVRQPPGKGLEWLGVIWAGGSTNYNSALMSRLRISKDNSKSQVFLKMNSLQTDDTAMYYCARIYGNYGRFAYWGQGTSVTVSS VL: DVVMTQTPLSLPVSLGDQASISCRSSQSIVHSNGNTYLEWYLQKPGQSPKLLIYKVSNRLSGVPDRFSGSGSGTDFTLKISRVEAEDLGVYYCFQGSLVPLTFGGGTKLEIK	–
highest internalization potential	D-D6: murine anti-CK8 monoclonal antibody (IgG1); VL SEQ ID NO: 36, VH SEQ ID NO: 38 (antibody, V domains shown, VH-mR022 (D-D6); VL-mR022 (D-D6)) VH: DVQLQESGPGLVKPSQSLSLTCTVTGYSITSDYAWNWIRQFPGNKLEWMGYISYSGRTSYNPSLKSRISITRDTSKNHFFLQLNSVTTEDTATYYCAPLTTGVGYAMDYWGQGTSVTVSS VL: DVVMTQTPLSLPVSLGDQASISCRSSQSLVHSNGNTYLHWYLQKPGQSPKVLIYKVSNRFSGVPDRFSGSGSGTDFTLKISRVEAEDLGVYFCSQSTHVPFTFGGGTKLEIK	–
